Results on six molecules are retold here after US20240043534A1 (UNIVERSITY OF CHICAGO, published 2024).

Sequences and labels used below:
T1: C-terminal domain of the Zaire strain of Ebola virus nucleoprotein (EBOV NP^CT) (Ebola virus, Zaire strain (EBOV), UniProt P18272 641-739)
T1 construct: also called EBOV NT^CT; NP^CT EBOV Zaire
T1 sequence: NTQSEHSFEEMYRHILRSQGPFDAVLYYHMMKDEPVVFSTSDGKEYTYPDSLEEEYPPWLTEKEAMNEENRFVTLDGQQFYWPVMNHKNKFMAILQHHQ

B1: Protein GA1 (designed binder)
chain: TPAVTTYKLVINGRTLSGYTTTTAVDAATAEKVFKQYAYVHEVDGEWTYDDATKTFTVTEKPEKL
notes: also called pGA1; PGA1
B2: Protein G D (designed binder)
chain: B1 chain with Y37I, A38D, Y39M, H41S, E42S
notes: also called pGD; D 38IDMVSS43
B3: Protein G F (designed binder)
chain: B1 chain with Y39F, V40G, H41N, E42G
notes: also called pGF; F 38YAFGNG43
B4: Fab Lc scaffold variant ΔΔLKT (mutated; printed in Table 1 as AALKS) (Fab, V domains shown)
VH: EVQLVESGGGLVQPGGSLRLSCAASGFNISYSSIHWVRQAPGKGLEWVASIYSYSGYTSYADSVKGRFTISADTSKNTAYLQMNSLRAEDTAVYYCARSYWYHVGSWHYTGMDYWGQGTLVTVSS
VL: DIQMTQSPSSLSASVGDRVTITCRASQSVSSAVAWYQQKPGKAPKLLIYSASSLYSGVPSRFSGSRSGTDFTLTISSLQPEDFATYYCQQSSSSLITFGQGTKVEIKR
B5: MJ20 RESTV LRT-Fab (Fab, V domains shown)
VH: B4 VH
VL: B4 VL
notes: also called Fab MJ20
B6: MJ6 EBOV LRT-Fab (Fab, V domains shown)
VH: EVQLVESGGGLVQPGGSLRLSCAASGFNVYYYYIHWVRQAPGKGLEWVASISPYYGYTSYADSVKGRFTISADTSKNTAYLQMNSLRAEDTAVYYCARWSYDQSMSYKSGMDYWGQGTLVTVSS
VL: B4 VL with S91Y, S93Y, I96V
notes: also called Fab MJ6

Residue numbers refer to the chain shown, from its start.

Assay [1] addresses T2, Fab^S (Herceptin Fab scaffold variant with Lc E123S; Lc aa 123-127 SQLKS). Briefly: SPR.
In assay [2] the target is T2, Fab^S (Herceptin Fab scaffold variant …). Kind of assay: SPR (preliminary results), Protein G variant against Fab scaffold.
For assay [3], the target named is T3, Fab^H (Herceptin Fab scaffold with wt human kappa Lc; Lc aa 123-127 EQLKS).
T3 construct: also called Hkappa
The assay is described as above.

Assay [4] addresses T4, “Λ” Fab scaffold (4D5 scaffold with SEELQANK in the Lc region).
T4 construct: also called “Lambda” Fab scaffold
The description is as above.

The assay “Protein GA1” concerns the target B1. Kind of assay: SPR, Fab Lc variant as analyte on His-tag-immobilized GA1. (Surface plasmon resonance follows binding to a sensor surface in real time, without labels.)
The target of assay [5] is T1, C-terminal domain of the Zaire strain …. Kind of assay: SPR, Fab as analyte on His-tag-immobilized antigen.

T4 sequence (light, as listed by the source): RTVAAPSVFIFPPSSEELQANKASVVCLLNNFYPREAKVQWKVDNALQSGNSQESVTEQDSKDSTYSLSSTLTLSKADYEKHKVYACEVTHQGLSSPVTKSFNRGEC

The term Kd denotes the equilibrium constant for the complex coming apart. B1: the figures for the Kd in assay [1] and in assay [2] were ~50 nM and 100 nM, respectively. As for B2, the affinity in assay [2], expressed as Kd, was 80 nM. For the molecule B3, the Kd was found to be 60 nM in assay [2], 3 nM in assay [3] and 50 nM in assay [4]. Take B4: in the assay with Protein GA1, the Kd is 12 nM. B5 showed a Kd in assay [5] of 3.4 nM. For orientation: koff means a measure of how fast the partners let go of each other. A low value points to slow dissociation. In assay [5], B6 displayed an equilibrium dissociation constant (Kd) of 0.7 nM and a koff of 0.001 s⁻¹.
